Results from US20220257784A1 (Bicycle, published 2022).
Starred links: 1 amine or outer side, 2 acyl side, 3 side chain; linkers in the order of their positions; H or OH if unused. Positions of bridges follow the written chain, without caps; N, C: chain ends. Non-standard residues stand in square brackets, D forms with d. No end group written: not given here. TATA = O=C(CC[*:1])N1CN(C(=O)CC[*:2])CN(C(=O)CC[*:3])C1; Ala(4-thiazolyl) = N[C@@H](Cc1cscn1)C(=O)O; Dip = N[C@H](C(=O)O)C(c1ccccc1)c1ccccc1; 1Nal = N[C@@H](Cc1cccc2ccccc12)C(=O)O; His(τ-Me) = Cn1cnc(C[C@H](N)C(=O)O)c1; d1Nal = N[C@H](Cc1cccc2ccccc12)C(=O)O; Hyp = O=C(O)[C@@H]1C[C@@H](O)CN1; hArg = N=C(N)NCCCC[C@H](N)C(=O)O; 2Thi = N[C@@H](Cc1cccs1)C(=O)O; 3Thi = N[C@@H](Cc1ccsc1)C(=O)O; Aad = N[C@@H](CCCC(=O)O)C(=O)O; His3Me = N3-methyl-L-histidine; Cysteamide = C(CS[*:3])N[*:1]; Cba = N[C@@H](CC1CCC1)C(=O)O; dNle = CCCC[C@@H](N)C(=O)O; NMeA = CN[C@@H](C)C(=O)O; Nle = CCCC[C@H](N)C(=O)O; Mpa = O=C(O)CCS

How the values were obtained:
human EphA2 [1] = molecular target: T1, human EphA2 (human, UniProt P29317 25-534, limits assumed); experiment: fluorescence polarisation competition with tracer BCY90, human EphA2, mean of 6
T1 construct: also called Eph receptor tyrosine kinase A2
Experimental: (§1) Peptides without a fluorescent tag were tested in competition with a peptide with a fluorescent tag and a known Kd.
(§2) Peptides were diluted to an appropriate concentration in assay buffer as described in the direct binding assay with a maximum of 5% DMSO, then serially diluted 1 in 2. […] Measurements were conducted, however the gain was determined prior to the first measurement. Data analysis was in Systat Sigmaplot version 12.0 where the mP values were fit to a user defined cubic equation to generate a Ki value: […]

human EphA2 [2] = molecular target: T1, human EphA2; experiment: fluorescence polarisation competition with tracer BCY90, human EphA2, mean of 38
Experimental: as §1, §2

human EphA2 [3] = molecular target: T1, human EphA2; experiment: fluorescence polarisation competition with tracer BCY90, human EphA2, mean of 10
Experimental: as §1, §2

human EphA2 [4] = molecular target: T1, human EphA2; experiment: fluorescence polarisation competition with tracer BCY90, human EphA2, mean of 8
Experimental: as §1, §2

T1 sequence (P29317 25-534 limits assumed): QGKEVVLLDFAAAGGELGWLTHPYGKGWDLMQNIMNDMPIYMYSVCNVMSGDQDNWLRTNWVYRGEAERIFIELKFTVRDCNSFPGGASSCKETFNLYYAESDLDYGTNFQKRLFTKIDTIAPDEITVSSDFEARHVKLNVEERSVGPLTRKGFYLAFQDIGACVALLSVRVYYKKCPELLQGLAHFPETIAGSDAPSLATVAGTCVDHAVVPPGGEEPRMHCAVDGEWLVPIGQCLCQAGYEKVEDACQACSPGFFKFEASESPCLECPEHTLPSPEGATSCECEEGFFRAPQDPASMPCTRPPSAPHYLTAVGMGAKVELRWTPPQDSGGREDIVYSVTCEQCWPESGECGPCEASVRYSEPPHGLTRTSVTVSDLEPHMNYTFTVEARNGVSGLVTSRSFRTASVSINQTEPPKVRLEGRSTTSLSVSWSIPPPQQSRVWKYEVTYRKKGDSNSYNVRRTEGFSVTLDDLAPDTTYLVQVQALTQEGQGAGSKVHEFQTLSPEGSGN

Row | Binder | Ki (human EphA2 [1]) [nM] | other results
1 | A[hArg]DC[Hyp]LVNPLCL[2Thi]P[dD]W[hArg]C-NH2 (linker 4-11-18 via TATA, Bicyclic peptide cyclised with TATA) [BCY13922] | 1.14 | –
2 | [dA]EDC[Hyp]LVNPLCLEP[dD]WTC-NH2 (linker 4-11-18 via TATA, Bicyclic peptide cyclised with TATA) [BCY13126] | 25.3 | –
3 | A[hArg]DC[Hyp]LVNPLCLEP[dD]W[hArg]C-NH2 (linker 4-11-18 via TATA, Bicyclic peptide cyclised with TATA) [BCY12854] | 9.34 | –
4 | A[hArg]DC[Hyp]LVNPLCLHP[dD]W[hArg]C-NH2 (linker 4-11-18 via TATA, Bicyclic peptide cyclised with TATA) [BCY9594] | – | Ki (human EphA2 [2]): 1.44 nM
5 | [NMeA][hArg]DC[Hyp]LVNPLCLHP[dD]W[hArg]C-NH2 (linker 4-11-18 via TATA, Bicyclic peptide cyclised with TATA) [BCY13121] | 1.49 | –
6 | A[hArg]DC[Hyp]LVNPLCL[Dip]P[dD]W[hArg]C-NH2 (linker 4-11-18 via TATA, Bicyclic peptide cyclised with TATA) [BCY12866] | – | Ki (human EphA2 [3]): 0.244 nM
7 | C[Hyp]LVNPLCL[1Nal]P[dD]WTC-NH2 (linker 1-8-15 via TATA, Bicyclic peptide cyclised with TATA) [BCY13119] | – | Ki (human EphA2 [4]): 2.64 nM
8 | A[hArg]DC[Hyp]LVNPLCLEP[dD]WTC-NH2 (linker 4-11-18 via TATA, Bicyclic peptide cyclised with TATA) [BCY12856] | – | Ki (human EphA2 [4]): 4.63 nM
9 | A[hArg]DC[Hyp]LVNPLCLHP[dD]WTC-NH2 (linker 4-11-18 via TATA, Bicyclic peptide cyclised with TATA) [BCY12855] | 5.55 | –
10 | A[hArg]DC[Hyp]LVNPLCL[Aad]P[dD]W[hArg]C-NH2 (linker 4-11-18 via TATA, Bicyclic peptide cyclised with TATA) [BCY13132] | 7.08 | –
11 | A[hArg]DC[Hyp][Cba]VNPLCLEP[dD]WTC-NH2 (linker 4-11-18 via TATA, Bicyclic peptide cyclised with TATA) [BCY12863] | 5.84 | –
12 | A[hArg]DC[Hyp]LVNPLCL[Nle]P[dD]W[hArg]C-NH2 (linker 4-11-18 via TATA, Bicyclic peptide cyclised with TATA) [BCY13135] | 0.894 | –
13 | A[hArg]DC[Hyp]LVNPLCL[Dip]P[dD]WTC-NH2 (linker 4-11-18 via TATA, Bicyclic peptide cyclised with TATA) [BCY12859] | – | Ki (human EphA2 [4]): 0.723 nM
14 | A[hArg]DC[Hyp]LVNPLCLHP[d1Nal]W[hArg]C-NH2 (linker 4-11-18 via TATA, Bicyclic peptide cyclised with TATA) [BCY13116] | – | Ki (human EphA2 [4]): 1.13 nM
15 | A[hArg]DC[Hyp]LVNPLCL[1Nal]P[dD]W[hArg]C-NH2 (linker 4-11-18 via TATA, Bicyclic peptide cyclised with TATA) [BCY13117] | – | Ki (human EphA2 [4]): 1.12 nM
16 | [NMeA][hArg]DC[Hyp]LVNPLCLEP[dD]WTC-NH2 (linker 4-11-18 via TATA, Bicyclic peptide cyclised with TATA) [BCY13122] | – | Ki (human EphA2 [4]): 7.8 nM
17 | A[hArg]DC[Hyp]LVNPLCL[His(τ-Me)]P[dD]W[hArg]C-NH2 (linker 4-11-18 via TATA, Bicyclic peptide cyclised with TATA) [BCY13918] | 2.62 | –
18 | [Mpa][Hyp]LVNPLCL[Dip]P[dD]WTC[dK]-NH2 (linker (positions not given here) via TATA; not fully specified (bridges), Bicyclic peptide cyclised with TATA; the first reactive group is 3-mercaptopropionic acid in place of cysteine) [BCY13129] | 1.88 | –
19 | [dA][hArg]DC[Hyp][Cba]VNPLCLEP[dD]WTC[dA]-NH2 (linker 4-11-18 via TATA, Bicyclic peptide cyclised with TATA) [BCY12864] | 9.29 | –
20 | A[hArg]DC[Hyp]LVNPLCL[3Thi]P[dD]W[hArg]C-NH2 (linker 4-11-18 via TATA, Bicyclic peptide cyclised with TATA) [BCY13923] | 1.32 | –
21 | A[hArg]DC[Hyp]LVNPLCL[His3Me]P[dD]W[hArg]C-NH2 (linker 4-11-18 via TATA, Bicyclic peptide cyclised with TATA) [BCY13917] | 1.72 | –
22 | A[hArg]DC[Hyp]LVNPLCL[Ala(4-thiazolyl)]P[dD]W[hArg]C-NH2 (linker 4-11-18 via TATA, Bicyclic peptide cyclised with TATA) [BCY13919] | 2.1 | –
23 | C[Hyp][Cba]VNPLCL[Dip]P[dD]WTC[dA]-NH2 (linker 1-8-15 via TATA, Bicyclic peptide cyclised with TATA) [BCY12865] | 0.857 | –
24 | A[hArg]DC[Hyp]LVNPLC[Aad]HP[dD]W[hArg]C-NH2 (linker 4-11-18 via TATA, Bicyclic peptide cyclised with TATA) [BCY13131] | 27.1 | –
25 | A[hArg]DC[Hyp]LVNPLCLEP[dD]WTC[dA]-NH2 (linker 4-11-18 via TATA, Bicyclic peptide cyclised with TATA) [BCY12857] | 16 | –

More lines, main results first:

Row | Ki (human EphA2 [1]) [nM] | Binder | other results
26 | 1.16 | A[hArg]DC[Hyp]LVNPLCLHP[dNle]W[hArg]C-NH2 (linker 4-11-18 via TATA, Bicyclic peptide cyclised with TATA) [BCY13134] | –
27 | 14.9 | [dA][dA]DC[Hyp]LVNPLCLEP[dD]WTC-NH2 (linker 4-11-18 via TATA, Bicyclic peptide cyclised with TATA) [BCY13127] | –
28 | 0.916 | Ac-C[Hyp]LVNPLCL[Dip]P[dD]WTC[dK]-NH2 (linker 1-8-15 via TATA, Bicyclic peptide cyclised with TATA) [BCY13120] | –
29 | 3.88 | A[hArg]DC[Hyp]LVNPLCLNP[dD]W[hArg]C-NH2 (linker 4-11-18 via TATA, Bicyclic peptide cyclised with TATA) [BCY14047] | –
30 | 0.641 | A[hArg]DC[Hyp]LVNPLCLFP[dD]W[hArg]C-NH2 (linker 4-11-18 via TATA, Bicyclic peptide cyclised with TATA) [BCY13920] | –
31 | 4.1 | A[hArg]DC[Hyp]LVNPLCLQP[dD]W[hArg]C-NH2 (linker 4-11-18 via TATA, Bicyclic peptide cyclised with TATA) [BCY14048] | –
32 | 1.83 | Ac-C[Hyp]LVNPLCLHP[dD]W[hArg]CL[dH]G[dK]-NH2 (linker 1-8-15 via TATA, Bicyclic peptide cyclised with TATA) [BCY13125] | –
33 | 7.62 | [d1Nal][hArg]DC[Hyp][Cba]VNPLCLEP[dA]WTC[dA]-NH2 (linker 4-11-18 via TATA, Bicyclic peptide cyclised with TATA) [BCY13124] | –
34 | 8.19 | A[hArg]DC[Hyp]LVNPLCLEP[dA]WTC-NH2 (linker 4-11-18 via TATA, Bicyclic peptide cyclised with TATA) [BCY12858] | –
35 | 7.8 | A[hArg]DC[Hyp][Aad]VNPLCLHP[dD]W[hArg]C-NH2 (linker 4-11-18 via TATA, Bicyclic peptide cyclised with TATA) [BCY13130] | –
36 | 21.7 | C[Hyp]LVNPLCLEP[dD]WTC[dA]-NH2 (linker 1-8-15 via TATA, Bicyclic peptide cyclised with TATA) [BCY12861] | –
37 | 3.24 | A[hArg]DC[Hyp]LVNPLCLHP[dD]W[hArg][Cysteamide] (linker (positions not given here) via TATA; not fully specified (bridges), Bicyclic peptide cyclised with TATA; the third reactive group is cysteamine in place of cysteine) [BCY13133] | –
38 | 6.44 | [dA][hArg]DC[Hyp][Cba]VNPLCLEP[dA]WTC[dA]-NH2 (linker 4-11-18 via TATA, Bicyclic peptide cyclised with TATA) [BCY13123] | –
39 | 0.66 | C[Hyp]LVNPLCL[Dip]P[dD]WTC-NH2 (linker 1-8-15 via TATA, Bicyclic peptide cyclised with TATA) [BCY12860] | –
40 | 16.1 | ADC[Hyp]LVNPLCLEP[dD]WTC-NH2 (linker 3-10-17 via TATA, Bicyclic peptide cyclised with TATA) [BCY13128] | –
41 | 1.22 | A[hArg]DC[Hyp][Cba]VNPLCLHP[dD]W[hArg]C-NH2 (linker 4-11-18 via TATA, Bicyclic peptide cyclised with TATA) [BCY12862] | –
42 | 5.42 | A[hArg]DC[Hyp]LVNPLCLEP[d1Nal]WTC-NH2 (linker 4-11-18 via TATA, Bicyclic peptide cyclised with TATA) [BCY13118] | –
